Assay results as given in article PMC12207590, “Substrate Specificity of the Organic Cation Transporters MATE1 and MATE2K and Functional Overlap with OCT1 and OCT2” (Journal of Medicinal Chemistry, 2025).
“And” between values parts separate entries of the source, which are not always exact repeats. Equal values may be shown once.

Tested on: CN(C)CCc1c[nH]c2ccc(C[C@H]3COC(=O)N3)cc12
Experiment: cells, lysate or membranes
Details: other: HEK293, 1 min, net uptake; pH 7.4; 37.0 °C

MATE2K (Homo sapiens), sequence (chain, as listed by the source): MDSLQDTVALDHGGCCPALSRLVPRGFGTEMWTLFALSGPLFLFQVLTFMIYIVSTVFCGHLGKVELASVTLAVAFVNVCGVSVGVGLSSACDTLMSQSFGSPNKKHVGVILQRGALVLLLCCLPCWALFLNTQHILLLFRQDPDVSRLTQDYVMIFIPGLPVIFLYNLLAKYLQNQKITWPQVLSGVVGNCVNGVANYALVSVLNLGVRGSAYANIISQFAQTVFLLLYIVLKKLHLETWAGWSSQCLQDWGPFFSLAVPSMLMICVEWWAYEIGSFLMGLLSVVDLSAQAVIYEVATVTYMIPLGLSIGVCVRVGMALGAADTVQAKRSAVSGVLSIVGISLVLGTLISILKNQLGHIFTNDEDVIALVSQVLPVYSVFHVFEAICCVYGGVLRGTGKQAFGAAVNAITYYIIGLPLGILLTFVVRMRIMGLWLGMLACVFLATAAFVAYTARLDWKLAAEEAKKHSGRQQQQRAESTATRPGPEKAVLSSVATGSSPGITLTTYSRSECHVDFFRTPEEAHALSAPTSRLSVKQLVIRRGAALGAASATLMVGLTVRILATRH

MATE2K (Homo sapiens) was tested, and the Km was 23.1 µM and 18.3 µM, the Vmax was 0.00074 µmol/min/mg and 0.000992 µmol/min/mg and the Vmax/Km was 32.1 µL/min/mg and 54.2 µL/min/mg.
